Substitutions are numbered along the chain they refer to. “Also recorded” adds a separate entry of the source. Blank lines part the entries; values can stand above or below the molecule they belong to. Ends that are not written are not given here.
How the values were obtained:
TF/heparanase complex [1] = biological target: T1, TF/heparanase complex (Homo sapiens, UniProt P13726+Q9Y251, DEL111-157/INS109GSGSG); test: Inhibition of heparanase procoagulant activity in the thrombin generation assay; type: biochemical; details: for heparanase procoagulant activity (thrombin generation): inhibitor added to the thrombin generation assay with heparanase
T1 construct: comprised of the 8 kDa and 50 kDa heparanase heterodimer (8+50); purchased American Diagnostica (Stanford, Conn., USA) for TF and factor VIIa; host or cells: heparanase GS3 made in house: conditioned medium of baculovirus-infected cells
Experimental: FIG. 6B. Heparanase procoagulant activity is attenuated by TFPI and TFPI-2. Same as FIG. 1D, except that recombinant human TFPI and TFPI-2 were added prior to heparanase addition. The mean value±SD of three independent experiments is shown.
FIG. 6C. Heparanase procoagulant activity is abrogated by an anti-Xa derivative.
In order to verify that factor Xa produced in the presence of heparanase is active, thrombin generation, the next step in the coagulation cascade, was examined. The experiment described above (FIG. 1A) was repeated and plasma-derived human prothrombin (222 μM) was added following the addition of factor X. After 15 minutes at 37° C., chromogenic substrate for thrombin was added (1 mM). In the presence of heparanase, thrombine generation was increased (FIG. 1D).

TF/heparanase complex [2] = biological target: T1, TF/heparanase complex; test: Inhibition of heparanase procoagulant activity in the factor Xa generation assay; type: biochemical; details: for procoagulant effect of heparanase on Xa level: co-addition of peptide with heparanase, FIG. 23A; for procoagulant effect induced by heparanase (Xa level): peptide 25 μg/ml (15 μM), heparanase 1.5 μM, FIG. 26
Experimental: FIG. 23A. Factor Xa levels was evaluated by chromogenic substrate in an in-vitro assay including purified proteins of tissue factor (TF), factor VIIa, factor X and assay buffer.
FIG. 26. Factor Xa levels was evaluated by chromogenic substrate in an in-vitro assay including lipidated TF (0.004 μM), factor VIIa (0.04 μM) and factor X (1.4 μM). The Xa level was studied by a chromogenic substrate (1 mM).
(§1) Following preliminary experiments to quantify the appropriate protein doses, we performed a basic experiment of factor Xa generation in the following manner: the concentrations mentioned are the final concentrations. Lipidated recombinant human TF (0.004 μM, […]), recombinant human factor VIIa (0.04 μM) and plasma-derived human factor X (1.4 μM) were incubated in 50 μL assay buffer (0.06 M Tris, 0.04 M NaCl, 2 mM CaCl 2, 0.04% bovine serum albumin, pH 8.4) to a total volume of 125 μL in a 96-well sterile plate. After 15 min at 37° C., chromogenic substrate for factor Xa was added (1 mM). After 20 min, the reaction was stopped with 50 μL of glacial acetic acid and the level of factor Xa generation was determined using an enzyme-linked immunosorbent assay (ELISA) plate reader (Power Wave XS, BIO-TEK, VT, USA). In order to visualize the increased production of factor Xa by western blotting, the experiment was repeated with 7 μM factor X. After 15 min at 37° C., half of the reaction volume was subjected to blotting using monoclonal anti-human factor X/Xa heavy chain antibody.
The coagulation assay included the peptides and the following components: lipidated TF (0.004 μM), factor VIIa (0.04 μM) and factor X (1.4 μM). The Xa level was studied by a chromogenic substrate (1 mM).

TF/heparanase complex [3] = biological target: T2, TF/heparanase complex (Homo sapiens, UniProt Q9Y251); test: TF/heparanase inhibitory peptides in heparanase-injected ICR mice (TAT by ELISA); type: in vivo; details: peptide intra-peritoneal half an hour after heparanase, blood after 4 hours
T2 construct: endogenous in cells; host or cells: ICR mice in vivo (TF endogenous)
T2 sequence (Q9Y251 36-543): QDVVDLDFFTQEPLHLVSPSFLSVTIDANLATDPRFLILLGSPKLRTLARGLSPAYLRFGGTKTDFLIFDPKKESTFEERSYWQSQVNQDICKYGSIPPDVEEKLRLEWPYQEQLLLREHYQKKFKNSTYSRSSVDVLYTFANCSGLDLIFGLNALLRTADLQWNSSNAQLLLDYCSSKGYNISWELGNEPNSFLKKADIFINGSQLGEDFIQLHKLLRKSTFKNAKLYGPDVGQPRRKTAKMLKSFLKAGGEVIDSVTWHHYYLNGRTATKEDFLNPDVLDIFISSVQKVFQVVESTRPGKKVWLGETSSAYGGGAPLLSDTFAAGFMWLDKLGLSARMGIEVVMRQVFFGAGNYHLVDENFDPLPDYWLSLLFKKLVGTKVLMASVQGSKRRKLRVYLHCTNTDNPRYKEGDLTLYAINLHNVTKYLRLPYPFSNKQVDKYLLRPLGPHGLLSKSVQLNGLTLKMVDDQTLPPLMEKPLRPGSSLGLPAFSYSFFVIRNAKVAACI
Experimental: FIG. 23B. Heparanase was injected intra-peritoneal to ICR mice. Inhibitory peptides to TF/heparanase complex (number 5, 6, 21) were injected intra-peritoneal half an hour after heparanase. Four hours later the blood was drawn and Thrombin-antithrombin (TAT) level was measured by ELISA.
Methods: ICR mice, heparanase knock-out mice and heparanase over-expression mice were studied. Sepsis was induced by intra-peritoneal injection of lipopolysaccharides (LPS). Inhibitory peptides to TF/heparanase complex (number 11, 22, 5, 6, 7, 12, and 21 [SEQ IDs: 1-7]) were injected intra-peritoneal half an hour after heparanase or LPS. After 4 hours blood was obtained via sub-mandibular plexus puncture followed by mice sacrificing. Levels of thrombin-antithrombin (TAT), D-Dimer and IL-6 were tested using ELISA. Western blot to plasma factor VII and immunostaining of fibrinogen in lung, kidney and spleen were performed.

[4] = Water solubility of the peptides; type: physicochemical
TF-factor VIIa complex = biological target: T3, TF-factor VIIa complex (Homo sapiens, UniProt P13726); test: Activated factor X generation assay with purified TF, factor VIIa and factor X (chromogenic substrate); type: biochemical; details: overnight serum-free medium of 293 HEK cells over-expressing heparanase species, compared to mock
T3 construct: purchased American Diagnostica (Stanford, Conn., USA)
Experimental: FIG. 1A. Recombinant human TF, recombinant human factor VIIa, and plasma-derived human factor X were incubated (15 min, 37° C.) in a total assay volume of 125 μL. Chromogenic substrate for the detection of factor Xa was then added (final concentration 1 mM). Recombinant active heparanase GS3 (Hepa) was added prior to the addition of the coagulation factors. The mean value±SD of three independent experiments in shown. […]
FIG. 1C. […] The mean value of two experiments is shown. Note a 2-fold increase in coagulation activity when the medium contained heparanase or its derivatives.
as §1
The factor Xa generation assay was performed as described in the Design and Methods section with increasing doses of recombinant human heparanase (GS3) added prior to the addition of the coagulation factors. […] It should be noted that factor X is composed of two polypeptide chains, a heavy chain with a molecular weight of 38 kDa and a light chain with a molecular weight of 18 kDa joined by a dipeptide Arg-Arg. The factor VIIa-TF complex activates the conversion of factor X to factor Xa by cleaving the heavy chain to a 33 kDa peptide. […] In order to exclude contamination of the heparanase preparation during the routine procedure of purification described in the Design and Methods section, the inventors tested the effect of overnight serum-free without phenol medium of 293 HEK cells over-expressing heparanase and its derivatives compared to mock. The proteins were further purified from the culture medium and analyzed. Similar quantities of proteins were obtained from the culture media.

T1 sequence (P13726 33-295, stated change not applied, one chain of several): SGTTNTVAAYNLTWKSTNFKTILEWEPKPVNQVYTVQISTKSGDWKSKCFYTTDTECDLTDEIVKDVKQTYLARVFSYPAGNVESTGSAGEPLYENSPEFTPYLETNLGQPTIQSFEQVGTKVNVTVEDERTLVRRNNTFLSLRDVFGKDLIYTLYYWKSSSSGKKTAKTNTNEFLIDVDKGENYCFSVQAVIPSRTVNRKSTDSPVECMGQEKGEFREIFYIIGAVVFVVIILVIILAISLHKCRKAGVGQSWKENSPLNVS
T3 sequence (P13726 33-295): as the sequence (P13726 33-295, stated change not applied, one chain of several) above
T3 sequence (P08709 61-212 partner limits assumed): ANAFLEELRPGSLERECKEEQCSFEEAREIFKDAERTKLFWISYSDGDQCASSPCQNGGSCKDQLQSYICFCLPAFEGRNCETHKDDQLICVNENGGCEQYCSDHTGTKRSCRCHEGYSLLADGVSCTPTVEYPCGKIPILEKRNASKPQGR
T3 sequence (P08709 213-466 partner limits assumed): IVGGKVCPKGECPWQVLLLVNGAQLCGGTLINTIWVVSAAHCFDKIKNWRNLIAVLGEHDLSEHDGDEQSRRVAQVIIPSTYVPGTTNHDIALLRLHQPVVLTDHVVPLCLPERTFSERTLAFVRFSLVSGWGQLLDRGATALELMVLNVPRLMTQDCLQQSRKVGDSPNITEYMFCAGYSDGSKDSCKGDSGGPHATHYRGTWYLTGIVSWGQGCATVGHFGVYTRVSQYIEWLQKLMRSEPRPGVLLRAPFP

- heparanase procoagulant activity (thrombin generation) (TF/heparanase complex [1]): abolished the effect of heparanase
Molecule: O=C(NC[C@H]1CN(c2ccc(N3CCOCC3=O)cc2)C(=O)O1)c1ccc(Cl)s1 [Rivaroxaban, reference compound]
- heparanase procoagulant activity (thrombin generation) (TF/heparanase complex [1]; listed as rivaroxaban): abolished the procoagulant effect of heparanase

Molecule: AEICLLPLDYGPCR (cysteine pairing not given here) [Peptide 6]
- procoagulant effect of heparanase on Xa level (TF/heparanase complex [2]): abolished the procoagulant effect of heparanase
- procoagulant effect induced by heparanase (Xa level) (TF/heparanase complex [2]): inhibited the procoagulant effect induced by heparanase
- procoagulant effect of heparanase (TAT level) (TF/heparanase complex [3]): completely abolished the procoagulant effect of heparanase

Molecule: Ac-AEICLLPLDYGPCR (cysteine pairing not given here) [Peptide 6-Ac]
- procoagulant effect induced by heparanase (Xa level) (TF/heparanase complex [2]): inhibited the procoagulant effect induced by heparanase

Molecule: Ac-Ile Cys Leu Leu Pro Leu Asp Tyr Gly Pro Cys Arg Ala Leu (Ac-ICLLPLDYGPCRAL; cysteine pairing not given here) [Peptide 5-Ac]
- procoagulant effect induced by heparanase (Xa level) (TF/heparanase complex [2]): inhibited the procoagulant effect induced by heparanase

Molecule: Ac-NNAEICLLPLDYGP [Peptide 7-Ac]
- water solubility compared to non-acetylated counterpart [4]: more water soluble than their corresponding non acetylated counterparts

- procoagulant effect of heparanase (TAT level) (TF/heparanase complex [3]): markedly decreased heparanase effect
Molecule: ICLLPLDYGPCRAL (cysteine pairing not given here) [Peptide 5]
- procoagulant effect of heparanase on Xa level (TF/heparanase complex [2]): abolished the procoagulant effect of heparanase
- procoagulant effect induced by heparanase (Xa level) (TF/heparanase complex [2]): inhibited the procoagulant effect induced by heparanase

- procoagulant effect of heparanase (TAT level) (TF/heparanase complex [3]): markedly decreased heparanase effect
Molecule: NANNFYTWEAC [Peptide 21]
- procoagulant effect of heparanase on Xa level (TF/heparanase complex [2]): abolished the procoagulant effect of heparanase

Molecule: NNAEICLLPLDYGP [Peptide 7]
- procoagulant effect of heparanase on Xa level (TF/heparanase complex [2]): abolished the procoagulant effect of heparanase
- procoagulant effect induced by heparanase (Xa level) (TF/heparanase complex [2]): inhibited the procoagulant effect induced by heparanase

Molecule: RYYYDRYTQSCRQF [Peptide 12]
- procoagulant effect of heparanase on Xa level (TF/heparanase complex [2]): abolished the procoagulant effect of heparanase

Molecule: TFPI: recombinant human tissue factor pathway inhibitor [reference compound]
- heparanase procoagulant activity (thrombin generation) (TF/heparanase complex [1]): attenuated the effect; also recorded: mildly attenuated thrombin generation but failed to abolish the procoagulant effect of heparanase

B1: TFPI-2: recombinant human tissue factor pathway inhibitor 2, purchased from R&D (protein, UniProt P48307 23-235, looked up)
Tissue factor pathway …: DAAQEPTGNNAEICLLPLDYGPCRALLLRYYYDRYTQSCRQFLYGGCEGNANNFYTWEACDDACWRIEKVPKVCRLQVSVDDQCEGSTEKYFFNLSSMTCEKFFSGGCHRNRIENRFPDEATCMGFCAPKKIPSFCYSPKDEGLCSANVTRYYFNPRYRTCDAFTYTGCGGNDNNFVSREDCKRACAKALKKKKKMPKLRFASRIRKIRKKQF
- heparanase procoagulant activity (thrombin generation) (TF/heparanase complex [1]): attenuated the effect; also recorded: mildly attenuated thrombin generation but failed to abolish the procoagulant effect of heparanase
- inhibitory potency compared to TFPI in the presence of heparanase (TF/heparanase complex [1]; thrombin generation with heparanase): more effective inhibitor than TFPI; also recorded: more potent than TFPI

- increase in factor Xa levels (TF-factor VIIa complex): increased factor Xa levels
B2: double mutant inactive heparanase: heparanase mutated at Glu225 and Glu343, critical for the enzyme catalytic activity (protein)
chain: T2 sequence (Q9Y251 36-543) with E190A, E308A

— patent US11448657B2, “Methods and kits for assessing Heparanase procoagulant activity, compositions comprising Heparanase, and methods for the treatment of coagulation-related disorders” (RAMBAM MED-TECH, priority 2011, dated 2022)
